We go through one sequence from PMC7888926.

Broadly, the Kd is a measure of binding affinity in units of concentration. High values mean a looser complex, low ones a tighter complex.

For data set [1], the target named is T1, GST-His6-HBD (UniProt O60930).
T1 sequence (O60930 whole entry, looked up): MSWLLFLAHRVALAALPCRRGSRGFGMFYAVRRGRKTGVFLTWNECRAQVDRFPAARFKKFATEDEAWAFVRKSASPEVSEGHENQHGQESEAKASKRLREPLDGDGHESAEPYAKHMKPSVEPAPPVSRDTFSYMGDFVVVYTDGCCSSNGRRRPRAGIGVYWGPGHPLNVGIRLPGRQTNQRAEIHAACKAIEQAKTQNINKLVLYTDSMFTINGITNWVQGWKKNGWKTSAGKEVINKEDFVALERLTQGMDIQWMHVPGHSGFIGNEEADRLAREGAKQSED
Nature of the data set: BLI. Conditions: EMSA: 30 nM probe, 20 mM Hepes pH 7.0, 100 mM NaCl, 5% glycerol, 10 mM DTT, 0.5 mM EDTA, 5 ug/ml salmon sperm DNA, 25°C 30 min; BLI: 20 mM Hepes-NaOH pH 7.5 ….

Data set [2] concerns the target GST-His6-2×HBD (UniProt O60930). Nature of the data set: BLI. Conditions: EMSA: 30 nM probe, 20 mM Hepes pH 7.0, 100 mM NaCl, 5% glycerol, 10 mM DTT, 0.5 mM EDTA, 5 ug/ml salmon sperm DNA, 25°C 30 min; BLI: 20 mM Hepes-NaOH pH 7.5 …. (A gel shift assay detects complexes by their altered migration in electrophoresis.)

Take “AGCGTGCCGTGCAACAACATTACAC / GUGUAAUGUUGUUGCACGGCACGCU [biotin DNA-RNA hybrid 25-mer (BLI)]”: the Kd in data set [1] stood at 16.5 nM; in data set [2] it was 10.4 nM.
